In US6875851:

Experiments:
[1] = target: T1, Peptide 13
T1 chain: PNPNQGNFI

[2] = target: Peptide 1
[3] = target: T2, Peptide 16
T2 chain: KGPPAALTL

[4] = target: T3, Peptide 12
T3 chain: ARPAK

[5] = target: T4, Peptide 14
T4 chain: RHPKYKTEL

[6] = target: T5, Peptide 9
T5 chain: VPPGEDSK

[7] = target: T6, Peptide 11
T6 chain: RGPFPI

[8] = target: T7, Peptide 22
T7 chain: KIAGYHLEL

[9] = target: T8, Peptide 10
T8 chain: VEPIPY

[10] = target: T9, Peptide 18
T9 chain: FLREPVIFL

[11] = target: T10, Peptide 2
T10 chain: RPPGF

[12] = target: T11, Peptide 19
T11 chain: GIRPYEILA

[13] = target: T12, Peptide 8
T12 chain: VPPGEDSK

[14] = target: T13, Peptide 15
T13 chain: GVPKTHLEL

[15] = target: T14, Peptide 5
T14 chain: RPGFSPFR

B1: prolyl-tripeptidyl peptidase A from P. gingivalis (protein)
chain: QSPETSGKEFTLEQLMPGGKEFYNFYPEYVVGLQWMGDNYVFIEGDDLVFNKANGKSAQTTRFSAADLNALMPEGCKFQTTDAFPSFRTLDAGRGLVVLFTQGGLVGFDMLARKVTYLFDTNEETASLDFSPVGDRVAYVRNHNLYIARGGKLGEGMSRAIAVTIDGTETLVYGQAVHQREFGIEKGTFWSPKGSCLAFYRMDQSMVKPTPIVDYHPLEAESKPLYYPMAGTPSHHVTVGIYHLATGKTVYLQTGEPKEKFLTNLSWSPDENILYVAEVNRAQNECKVNAYDAETGRFVRTLFVETDKHYVEPLHPLTFLPGSNNQFIWQSRRDGWNHLYLYDTTGRLIRQVTKGEWEVTNFAGFDPKGTRLYFESTEASPLERHFYCIDIKGGKTKDLTPESGMHRTQLSPDGSAIIDIFQSPTVPRKVTVTNIGKGSHTLLEAKNPDTGYAMPEIRTGTIMAADGQTPLYYKLTMPLHFDPAKKYPVIVYVYGGPHAQLVTKTWRSSVGGWDIYMAQKGYAVFTVDSRGSANRGAAFEQVIHRRLGQTEMADQMCGVDFLKSQSWVDADRIGVHGWSYGGFMTTNLMLTHGDVFKVGVAGGPVIDWNRYEIMYGERYFDAPQENPEGYDAANLLKRAGDLKGRLMLIHGAIDPVVVWQHSLLFLDACVKARTYPDYYVYPSHEHNVMGPDRVHLYETITRYFTDHL
For B1, the Cleavage site [1] was “H-Pro-Asn-Pro-↓-Asn-Gln-Gly-Asn-Phe-Ile”, the Cleavage site [2] was “H-Arg-Pro-Pro-↓-Gly-Phe-Ser-Pro-Phe-Arg” and the “Cleavage site (no ↓ printed: not cleaved)” value [3] was “H-Lys-Gly-Pro-Pro-Ala-Ala-Leu-Thr-Leu”. The Cleavage site [4] was “H-Ala-Arg-Pro-↓-Ala-D-Lys-amide”, the Cleavage site [5] was “H-Arg-His-Pro-↓-Lys-Tyr-Lys-Thr-Glu-Leu” and the “Cleavage site (no ↓ printed: not cleaved)” value [6] was “Ac-Val-Pro-Pro-Gly-Glu-Asp-Ser-Lys”. For the same protein, the Cleavage site [7] was “H-Arg-Gly-Pro-↓-Phe-Pro-Ile”, the “Cleavage site (no ↓ printed: not cleaved)” value [8] was “H-Lys-Ile-Ala-Gly-Tyr-His-Leu-Glu-Leu” and the Cleavage site [9] was “H-Val-Glu-Pro-↓-Ile-Pro-Tyr”. For the same protein, the “Cleavage site (no ↓ printed: not cleaved)” value [10] was “H-Phe-Leu-Arg-Glu-Pro-Val-Ile-Phe-Leu”, the Cleavage site [11] was “H-Arg-Pro-Pro-↓-Gly-Phe” and the “Cleavage site (no ↓ printed: not cleaved)” value [12] was “H-Gly-Ile-Arg-Pro-Tyr-Glu-Ile-Leu-Ala”. For the same protein, the Cleavage site [13] was “H-Val-Pro-Pro-↓-Gly-Glu-Asp-Ser-Lys”, the Cleavage site [14] was “H-Gly-Val-Pro-↓-Lys-Thr-His-Leu-Glu-Leu” and the “Cleavage site (no ↓ printed: not cleaved)” value [15] was “H-Arg-Pro-Hyp-Gly-Phe-Ser-Pro-Phe-Arg”.
